The values that follow come from the supplement of paper PMC9170038.

For this data set, the system named is MS2 coat protein. The experiment in a line: apparent KD of MS2 coat protein; higher = weaker reporter binding. Conditions: Eterna round: R107. In a few lines: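 Titration buffer: 100 mM Tris-HCl pH 7.5, 80 mM KCl, 4 mM MgCl2, without or with constant ligand. Designed RNA switches transcribed on-chip from Illumina sequencing clusters received SNAP-549-labelled MS2 coat protein in twofold steps from 0.7 or 1.5 nM to 3 µM. Apparent KD is the median per design of fits to normalised cluster binding curves.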

Where [1] appears, read: input ligand: theophylline 20 uM.
The mark [2] stands for this setting: input ligand: tryptophan 2.4 mM.
[3] abbreviates: input ligand: theophylline 2 mM.

With “AUCGUACCUGAUGAUACCAGCAUGUGAUCAUAACAUGAGGAUCACCCAUGUAAUCAGUGAUGCCCUUGGCAGCAUAGUCGAUACA [Same State - Theophylline B (Freestyle 6)]”, the “apparent KD of MS2 coat protein” value (input ligand: arginine 13.2 mM) came to 80.8 nM, the “apparent KD of MS2 coat protein” value under setting [1] came out at 174 nM and the “apparent KD of MS2 coat protein” value under setting [2] amounted to 149 nM.
For “AUCGUACCUGAUGAUACCAGCAUGUGCUCGUAACAUGAGGAUCACCCAUGUGAUCAGUAAUGCCCUUGGCAGCAUGAUCGGUACA [Same State - Theophylline B (Freestyle 17)]”, in that order: 58.8 nM, 46.9 nM and 50.8 nM.
On to “AUGCAUAGCCGAAGGAGCGCAAUAGAAUGACAUGAGGAUCACCCAUGUGUGUGAUGUGGAUUGCAGGUAGGUCGCGGAGUGGUAU [Exclusion - Arginine B (Freestyle 4)]”, for which the “apparent KD of MS2 coat protein” value by setting is: (input ligand: arginine 13.2 mM) 34.2 nM; (input ligand: none) 37.7 nM; under setting [1], 52.6 nM; under setting [3], 48.1 nM; under setting [2], 30.5 nM.
Turning to “AUGGAACAUGAGGAUCACCCAUGUGAUGAUACCAGAUUAACGCUUAUCCCUUGGCAGCAUGUCCGCCCUCAACCUGUGGCGUAUU [theeternabot_sameState_MS2_Theo_A_50]”, the “apparent KD of MS2 coat protein” value runs as follows: (input ligand: arginine 13.2 mM) 21.5 nM; under setting [1], 36 nM; under setting [2], 20.3 nM.
For the sequence “AUGGACGGCGAUCUGGGUUUACCAGAUCGGCGAGGACCGGUACGGCCGCCACUCGUGUUUAUUUAACAUGAGGAUCACCCAUGUA [SSTA #2]”, the “apparent KD of MS2 coat protein” value was determined as 62.4 nM (input ligand: arginine 13.2 mM); 97.6 nM (input ligand: none); 163 nM under setting [1]; 139 nM under setting [3]; 21.3 nM under setting [2].
Turning to “AUGUCGUUGAAUACAGCGGCAUGGAGUGAUACCAGAAUGAUCAAAUUCCCUUGGCAGCAUCACAUGAGGAUCACCCAUGUUCGAU [SSTheo A #16]”, the “apparent KD of MS2 coat protein” value (input ligand: arginine 13.2 mM) was 22.2 nM, the “apparent KD of MS2 coat protein” value under setting [1] was determined as 33.2 nM and the “apparent KD of MS2 coat protein” value under setting [2] was 40.9 nM.
For “AUUAAUAGUUGUGAUACCAGACGAACAUGAGGAUCACCCAUGUAACUUUUAGGUGUUGUAGUCCCUUGGCAGCACUAUUUAGUUA [JR_SSTheophyB_Sub014]”, in that order: 29.3 nM, 48.4 nM and 33.6 nM.
In the case of “AUUAUCAUGGUCAUAUAUAUUUCGUCAGAUACCAGACUAGAUAUAGUCCCUUGGCAGCUGUUACAUGAGGAUCACCCAUGUUAUU [JR_ExcTheophyA_Sub017]”, the “apparent KD of MS2 coat protein” value runs as follows: (input ligand: arginine 13.2 mM) 32.2 nM; under setting [1], 80.3 nM; under setting [2], 96.3 nM.
The matching figures for “CAAAACCUUACAGAUACCAGCACAUGAGGAUCACCCAUGUAUUGGACACUUCGCUCAUCGUGCCCUUGGCAGCUGUGGGACGAGG [Tiatenan]”: 30.3 nM, 132 nM and 77.6 nM.
With “CAAACAUGAGGAUCACCCAUGUAAACCGAAGGAGCGACGCAUAAGUCAGGUAGGUCGCGGAAGAUAAAAUAGAACACUGGGCACA [Same State Arginine A GF1]”, the “apparent KD of MS2 coat protein” value by setting is: (input ligand: arginine 13.2 mM) 18.2 nM; (input ligand: none) 17.7 nM; under setting [1], 19.2 nM; under setting [3], 17.3 nM; under setting [2], 19.1 nM.
Take “CAAACAUGAGGAUCACCCAUGUAAUCAGAUACCAGUGACGAAAGUCACCCUUGGCAGCUGAGUACAUUAGUUCUAAGGUGUUUGA [EThA NP+V+V2 #6 +-Same Structure]”: the “apparent KD of MS2 coat protein” value is 32.7 nM (input ligand: arginine 13.2 mM), 61 nM under setting [1] and 35.7 nM under setting [2].
Consider “CAAUAUAUAGCGGCCGCCACUUACUCAUGAGGUAACAACAUGAGGAUCACCCAUGUUUGAGGAUCAAGGACCGGGCUAUAUAUUG [AstrosSSTryB#6]”, for which the “apparent KD of MS2 coat protein” value (input ligand: arginine 13.2 mM) was determined as 22.2 nM, the “apparent KD of MS2 coat protein” value under setting [1] was 31.9 nM and the “apparent KD of MS2 coat protein” value under setting [3] turned out to be 32.2 nM.
On to “CACAUGAGGAUCACCCAUGUCUGAACUGAAGGAGCGCUAAACAAGGCAGGUAGGUCGCGGAAUCCCGGGUGCAUAUGCACCCGGG [9.aA]”, for which the “apparent KD of MS2 coat protein” value is, setting by setting: (input ligand: arginine 13.2 mM) 50.4 nM; (input ligand: none) 23.9 nM; under setting [1], 23.2 nM; under setting [3], 23.4 nM; under setting [2], 21.4 nM.
For the sequence “CACGAAAGAUCGGCCGCCACUAACCUGUGUGUACUAGCACAUGAGGAUCACCCAUGUUCUUGCGUUAGGACCGGGAUUGAGCGUG [#04 Exclusion Tryptophan B]”, the “apparent KD of MS2 coat protein” value reads like this: (input ligand: arginine 13.2 mM) 20.9 nM; under setting [1], 30.7 nM; under setting [3], 27.5 nM.
For the sequence “CACGGAAGAGUGGAUCACCCUCUUAAUAAACGAGGACCGGUACGGCCGCCACUCGAAAACCGUGACCUGUACGAAAAGUGCAGGA”, the “apparent KD of MS2 coat protein” value runs as follows: (input ligand: arginine 13.2 mM) 31.3 nM; (input ligand: none) 39.4 nM; under setting [1], 202 nM; under setting [3], 437 nM; under setting [2], 127 nM.
Regarding “CAGCAACAAUUGGAUACCAGCCAUUACAGGUAUCAUUAUAACAUGAGGAUCACCCAUGUAGGCCCUUGGCAGCCAUUGGUGUAAG [theeternabot_exclusion_MS2_Theo_B_22]”, the “apparent KD of MS2 coat protein” value was found to be 27.5 nM (input ligand: arginine 13.2 mM), 69 nM under setting [1] and 40.5 nM under setting [2].
Take “CAGCCUGAUUGGUAAAUCCCUCAUCGUGAUACCAGUCGAGUGAUCGACCCUUGGCAGCACAUGAGGAUCACCCAUGUGCGCGUAA [Raisener]”: the “apparent KD of MS2 coat protein” value by setting is: (input ligand: arginine 13.2 mM) 22 nM; under setting [1], 34.9 nM; under setting [2], 24 nM.
For “CAUACUUUAGUAUGUAAUGUGGACAGUGAUACCAGAUACGAAAGUAUCCCUUGGCAGCACAACAUGAGGAUCACCCAUGUAUUUU [Theophylline A 3]”, in that order: 20.9 nM, 20 nM and 19.2 nM.
For “CAUACUUUAUCCUAUGAGCCUAUUUGUGAUACCAGCAUCUAAAUUUGCCCUUGGCAGCACUUACAUGAGGAUCACCCAUGUUUUA [JR_NU_SSTheophyA_Sub028]”, in that order: 22 nM, 33.6 nM and 24 nM.
Regarding “CAUGGCUGUGCGGCCGCCACUGGCUCAUCCUGCAUUACAUGAGGAUCACCCAUGUUGCGGCCUCCCAGGACCGGGCAUAGCCUGA [Abediat]”, the “apparent KD of MS2 coat protein” value reads like this: (input ligand: arginine 13.2 mM) 39.5 nM; under setting [1], 511 nM; under setting [3], 571 nM.
Turning to “CAUGGGUGGGUGCUGCCACCCAUUGGUGAUACCAGCAUCGAAAGAUGCCCUUGGCAGCACCAACAUGAGGAUCACCCAUGUAAUA [(M)'-(T)'-(M)''-(T1)-(T2)-(M1)-(M2)_Design4]”, the “apparent KD of MS2 coat protein” value was found to be 58.6 nM (input ligand: arginine 13.2 mM), 145 nM under setting [1] and 67.8 nM under setting [2].
For “CAUGGGUGGUAUCACCCAUCCAUAGGUGAUACCAGCAUCGAAAGAUGCCCUUGGCAGCACCAACAUGAGGAUCACCCAUGUAAUA [(M)'-(T)'-(M)''-(T1)-(T2)-(M1)-(M2)_Design2]”, the “apparent KD of MS2 coat protein” value runs as follows: (input ligand: arginine 13.2 mM) 48.1 nM; under setting [1], 189 nM; under setting [2], 354 nM.
In the case of “CCAUAGGGUAAAUACAUAAUCAUAUCUGAAGGAGCGUGGAUAAACACAGGUAGGUCGCAGAAUCACAUGAGGAUCACCCAUGUCU [Same State Arginine A GF11]”, the “apparent KD of MS2 coat protein” value (input ligand: arginine 13.2 mM) was 24.5 nM; the “apparent KD of MS2 coat protein” value (input ligand: none) amounted to 36.1 nM; the “apparent KD of MS2 coat protein” value under setting [1] stood at 53.5 nM; the “apparent KD of MS2 coat protein” value under setting [3] came to 52.6 nM; the “apparent KD of MS2 coat protein” value under setting [2] stood at 36.5 nM.
In the case of “CCAUGCAGGUCGGCCGCCACUACACACAUGAGGAUCACCCAUGUAGUUACUGGGUGAAGUGGCAGUAGGACCGGGACCUGCAUAU [Brourdmod11]”, the “apparent KD of MS2 coat protein” value is, setting by setting: (input ligand: arginine 13.2 mM) 94.5 nM; (input ligand: none) 284 nM; under setting [1], 330 nM; under setting [3], 504 nM; under setting [2], 1020 nM.
On to “CCCGUAAAGGCGGCCGCCACUGUAUGACAUGAGGAUCACCCAUGUAGGGAAAAUGCGAUGGUCGUCAGGACCGGGCCUCUGGCAU [theeternabot_exclusion_MS2_Trp_B_5]”, for which the “apparent KD of MS2 coat protein” value (input ligand: arginine 13.2 mM) worked out at 17.4 nM, the “apparent KD of MS2 coat protein” value under setting [1] turned out to be 29.3 nM and the “apparent KD of MS2 coat protein” value under setting [3] was 28.2 nM.
Regarding “CCUAUGACAUGAGGAUCACCCAUGUUGGAUACCAGCGCAUGAGGACGCCCUUGGCAGCCAAUGAACAUGAGGAUACAUGAGGAUC [Same State Theophylline A 4]”, the “apparent KD of MS2 coat protein” value is, setting by setting: (input ligand: arginine 13.2 mM) 30.2 nM; under setting [1], 69.7 nM; under setting [2], 41.6 nM.
For “CCUAUGCAGUCGGCCGCCACUGAAAUAAAUUAUAUUACCUCAGAAACAUGAGGAUCACCCAUGUACAGGACCGGGACUGUAUAGG [Ex Tryptophan B 15]”, the “apparent KD of MS2 coat protein” value is, setting by setting: (input ligand: arginine 13.2 mM) 26 nM; (input ligand: none) 35.3 nM; under setting [1], 44.2 nM; under setting [3], 26.2 nM; under setting [2], 56.3 nM.
With “CCUAUGCAGUCGGCCGCCACUGAAAUCAAUAAGAUUACCUCAGAAACAUGAGGAUCACCCAUGUACAGGACCGGGACUGUAUAGG [Ex Tryptophan B 16]”, the “apparent KD of MS2 coat protein” value was 20.6 nM (input ligand: arginine 13.2 mM); 40 nM (input ligand: none); 41.8 nM under setting [1]; 37.2 nM under setting [3]; 84.3 nM under setting [2].
In the case of “CCUAUGCAGUCGGCCGCCACUGAACAUGAGGAUCACCCAUGUUUUUAUAAAUAUGGUCCUAUAAUCAGGACCGGGACUGUAUAGG [Ex Tryptophan B 9]”, the “apparent KD of MS2 coat protein” value is, setting by setting: (input ligand: arginine 13.2 mM) 38.3 nM; (input ligand: none) 69.2 nM; under setting [1], 59.7 nM; under setting [3], 64.6 nM; under setting [2], 69.2 nM.
For “CCUGGACAUGAGGAUCACCCAUGUGAGGAUACCAGAUAUCCUGAUAUCCCUUGGCAGCCUCAUUACUUCGCAUUACCGAAACUUC [theeternabot_sameState_MS2_Theo_A_35]”, the “apparent KD of MS2 coat protein” value (input ligand: arginine 13.2 mM) turned out to be 31.1 nM, the “apparent KD of MS2 coat protein” value under setting [1] came out at 166 nM and the “apparent KD of MS2 coat protein” value under setting [2] is 57.1 nM.
On to “CGAAAGCACAUGGGUUGCUUUCGACUGGAAGGAGCGAGCGAAAGCUCAGGUAGGUCGCCAGAAACAUGAGGAUCACCCAUGUAAU [(A)''-(M)'-(A)'(Arg1)-(Arg2)-(M1)-(M2)_Design10]”, for which the “apparent KD of MS2 coat protein” value amounted to 21.6 nM (input ligand: arginine 13.2 mM); 18.3 nM (input ligand: none); 27.4 nM under setting [1]; 21.3 nM under setting [3]; 22.4 nM under setting [2].
As to “CGAUCUUUCGAAAGAAGGAUCGAGUCUGAUACCAGAGACGAAAGUCUCCCUUGGCAGCAGUGCCAACAUGAGGAUCACCCAUGUA [Theophylline A 9]”, the “apparent KD of MS2 coat protein” value amounted to 20.7 nM (input ligand: arginine 13.2 mM), 26.3 nM under setting [1] and 18.9 nM under setting [2].
The matching figures for “CGAUCUUUCGAAAGAAGGAUCGAUUCUGAUACCAGAGACGAAAGUCUCCCUUGGCAGCAGUGCCAACAUGAGGAUCACCCAUGUA [Theophylline A 8]”: 26.4 nM, 26 nM and 23.6 nM.
